What all share (details): both partners purified
In experiment [1] the target is T1, recombinant mouse laminin β1 chain C-terminal coiled-coil fragment (1561–1786) (mouse, UniProt P02469 1561-1786).
T1 construct: two residues (GlySer) left from the protease recognition site after thrombin cleavage; laminin β1 chain, mouse, C-terminal coiled-coil fragment, residues 1561-1786 of the native chain (226 residues); source: E. coli JM109(DE3), purified (Ni2+-Sepharose, denaturing, 8 M urea), 6xHis tag removed by thrombin; not shown: 6xHis, N-terminal, cleaved
T1 sequence: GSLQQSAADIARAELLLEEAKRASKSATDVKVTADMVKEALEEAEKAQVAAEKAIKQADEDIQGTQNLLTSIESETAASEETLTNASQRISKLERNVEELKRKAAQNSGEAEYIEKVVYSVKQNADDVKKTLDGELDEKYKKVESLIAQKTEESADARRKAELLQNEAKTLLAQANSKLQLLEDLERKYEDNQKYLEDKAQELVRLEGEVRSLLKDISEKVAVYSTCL
The experiment in a line: AUC; sedimentation equilibrium and velocity; 5 mM sodium phosphate, 150 mM NaCl, pH 7.0 (methods) or 7.4 (Table 3); 0.1-0.5 mg/ml.

For experiment [2], the target named is T1, recombinant mouse laminin β1 chain …. Described as above. This is another data set of the same source.
Experiment [3] addresses T2, β1γ1 complex of the recombinant mouse laminin coiled-coil fragments (mouse, UniProt P02469 1561-1786; P02468 1362-1607).
T2 construct: two residues (GlySer) left from the protease recognition site after thrombin cleavage; laminin β1 chain, mouse, residues 1561-1786 of the native chain; as m6; laminin γ1 chain, mouse, residues 1362-1607 of the native chain; as m9; heterodimer by AUC; in the αβγ tests all three chains were mixed, the βγ complex was not isolated beforehand; source: mixture of the purified E. coli fragments; not …
T2 sequence 1: T1 sequence
T2 sequence 2: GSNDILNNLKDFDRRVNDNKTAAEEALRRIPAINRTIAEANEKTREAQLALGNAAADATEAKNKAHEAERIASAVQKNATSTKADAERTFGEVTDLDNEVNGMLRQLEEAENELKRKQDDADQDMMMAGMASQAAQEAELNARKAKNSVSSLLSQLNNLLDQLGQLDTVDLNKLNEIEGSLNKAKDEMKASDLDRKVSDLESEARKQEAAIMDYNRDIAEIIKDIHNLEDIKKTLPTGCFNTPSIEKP
Described as above.

In experiment [4] the target is T3, β1γ2 complex of the recombinant mouse laminin coiled-coil fragments (mouse, UniProt P02469 1561-1786; Q61092 949-1191).
T3 construct: two residues (GlySer) left from the protease recognition site after thrombin cleavage; laminin β1 chain, mouse, residues 1561-1786 of the native chain; as m6; laminin γ2 chain, mouse, residues 949-1191 of the native chain; as m10; alone a heterotetramer by AUC (most likely two β1 and two γ2 chains); one chain of each in the trimer with α3; in the αβγ tests all three chains were mixed; also called …
T3 sequence 1: T1 sequence
T3 sequence 2: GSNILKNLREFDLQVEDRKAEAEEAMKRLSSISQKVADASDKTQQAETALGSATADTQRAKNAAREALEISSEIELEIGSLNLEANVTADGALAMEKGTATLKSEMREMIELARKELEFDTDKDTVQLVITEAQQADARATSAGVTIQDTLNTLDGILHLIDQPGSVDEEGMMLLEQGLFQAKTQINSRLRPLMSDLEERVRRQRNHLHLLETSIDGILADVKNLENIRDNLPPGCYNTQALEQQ
The description is as above.

Experiment [5] deals with T4, β2γ1 complex of the recombinant mouse laminin coiled-coil fragments (mouse, UniProt Q61292 1575-1799; P02468 1362-1607).
T4 construct: two residues (GlySer) left from the protease recognition site after thrombin cleavage; laminin β2 chain, mouse, residues 1575-1799 of the native chain; as m7; laminin γ1 chain, mouse, residues 1362-1607 of the native chain; as m9; in the αβγ tests all three chains were mixed, the βγ complex was not isolated beforehand; source: mixture of the purified E. coli fragments; not shown: 6xHis, …
T4 sequence 1: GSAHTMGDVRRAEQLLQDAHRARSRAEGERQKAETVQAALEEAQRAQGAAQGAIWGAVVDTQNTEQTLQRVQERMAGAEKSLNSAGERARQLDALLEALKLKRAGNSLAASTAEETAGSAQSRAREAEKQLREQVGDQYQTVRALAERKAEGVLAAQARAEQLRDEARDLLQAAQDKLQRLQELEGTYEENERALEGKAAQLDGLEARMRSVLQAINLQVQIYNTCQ
T4 sequence 2: T2 sequence 2
Kind of experiment: native gel or EMSA; mixtures of one α, one β and one γ chain fragment; 10% non-denaturing PAGE (acid gels for basic complexes); mixtures reduced, heated to 70 °C for 5 min and cooled; run overnight at 50 V, room temperature, no cooling; Coomassie; bands confirmed by in-gel trypsin digestion and mass spectrometry.

For experiment [6], the target named is T5, β3γ2 complex of the recombinant mouse laminin coiled-coil fragments (mouse, UniProt Q61087 945-1168; Q61092 949-1191).
T5 construct: two residues (GlySer) left from the protease recognition site after thrombin cleavage; laminin β3 chain, mouse, residues 945-1168 of the native chain; as m8; laminin γ2 chain, mouse, residues 949-1191 of the native chain; as m10; in the αβγ tests all three chains were mixed, the βγ complex was not isolated beforehand; source: mixture of the purified E. coli fragments; not shown: 6xHis, …
T5 sequence 1: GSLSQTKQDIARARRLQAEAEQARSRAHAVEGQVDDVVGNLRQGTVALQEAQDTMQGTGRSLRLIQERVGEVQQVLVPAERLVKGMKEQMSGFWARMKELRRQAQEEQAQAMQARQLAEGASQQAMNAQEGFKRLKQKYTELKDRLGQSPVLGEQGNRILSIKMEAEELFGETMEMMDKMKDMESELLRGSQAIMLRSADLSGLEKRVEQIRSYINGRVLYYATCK
T5 sequence 2: T3 sequence 2
Described as above.

B1: recombinant mouse laminin γ2 chain C-terminal coiled-coil fragment (949–1191) (domain or fragment)
chain: T3 sequence 2
notes: two residues (GlySer) left from the protease recognition site after thrombin cleavage; laminin γ2 chain, mouse, C-terminal coiled-coil fragment, residues 949-1191 of the native chain (243 residues); source: E. coli JM109(DE3), purified (Ni2+-Sepharose, denaturing, 8 M urea), 6xHis tag removed by thrombin; not shown: 6xHis, N-terminal, cleaved; pPEP-T leader (short C-terminal fragment of the …)
For the molecule B1, the stoichiometry N (commonly the number of molecules, sites or subunits per partner or assembly) in experiment [1] was 1 γ2 per β1 (2:2).

B2: recombinant mouse laminin γ1 chain C-terminal coiled-coil fragment (1362–1607) (domain or fragment)
chain: T2 sequence 2
notes: two residues (GlySer) left from the protease recognition site after thrombin cleavage; laminin γ1 chain, mouse, C-terminal coiled-coil fragment, residues 1362-1607 of the native chain (246 residues); source: E. coli JM109(DE3), purified (Ni2+-Sepharose, denaturing, 8 M urea), 6xHis tag removed by thrombin; not shown: 6xHis, N-terminal, cleaved; pPEP-T leader (short C-terminal fragment of the …)
Consider B2, for which, in experiment [2], the “stoichiometry N” value was 1.

B3: recombinant mouse laminin α3 chain C-terminal coiled-coil fragment (2176–2397) (domain or fragment)
chain: GSYENILNAIRAAEDAASKATSASKSAFQTVIKEDLPKRAKTLSSDSEELLNEAKMTQKRLQQVSPALNSLQQTLKTVSVQKDLLDANLTVARDDLHGIQRGDIDSVVIGAKSMVREANGITSEVLDGLNPIQTDLGRIKDSYESARREDFSKALVDANNSVKKLTRKLPDLFIKIESINQQLLPLGNISDNVDRIRELIQQARDAANKVAIPMRFNGKSGVEV
notes: two residues (GlySer) left from the protease recognition site after thrombin cleavage; laminin α3 chain, mouse, C-terminal coiled-coil fragment, residues 2176-2397 of the native chain (222 residues); the printed numbers fit the long (α3B) form; source: E. coli JM109(DE3), purified (Ni2+-Sepharose, denaturing, 8 M urea), 6xHis tag removed by thrombin; not shown: 6xHis, N-terminal, cleaved; pPEP-T …
On to B3, for which the “stoichiometry N” value in experiment [3] and in experiment [4] was 1 each time. The binding result in experiment [5] and in experiment [6] was “binds” in each case.

These data come from publication PMC2877795, “Laminin chain assembly is regulated by specific coiled-coil interactions” (Journal of Structural Biology, 2010).
